Experiments:
[1] = system: MKK6CAM; assay: p38 activation by MKK6CAM in situ (anti-phospho-p38) in HEK293 cells; type: cell-based, human; settings: HEK293, 150 ng p38 plasmid, 50 ng pCDNA3-MKK6CAM
Procedure: In overexpression experiments analogous to those described previously, HEK293 cells, seeded in M6 and always in duplicate, were transfected with: 150 ng of pCDNA3-Flag-p38α WT, or pCDNA3-Flag-p38α T123D and 50 ng of pCDNA3-MKK6CAM, (or empty pCDNA3). p38 activation with the anti-phospho-p38 antibody was evaluated. For each of the two isoforms, the activation by MKK6CAM was in reference to the baseline situation, obtaining a certain activation level. 100% activation was established as the p38α WT activation in each experiment. Data (±SEM) of three independent experiments are shown. A two-sided Student's-t test was carried out and *p<0.0001 was obtained. The right-hand side panels (Western blot) illustrate one of the experiments. […]
The HE 293 cells, generally subjected to starvation (medium without serum) of a variable duration: 2 hours in the case of p38 and all night in the case of ERK, were stimulated and, after processing the lysate cells, the immunodetection of the phosphoproteins was carried out with the phospho-specific antibodies of the activation segments of both proteins. […] The quantification of the bands was carried out in a laser densitometer. In all the cases, the values obtained for the bands detected with the anti-phospho-protein antibody were normalized in relation to the total amount of p38 or ERK expressed in the cells. […]

[2] = target: T1, MAPKAPK2 (MK2) (Homo sapiens, UniProt P49137); assay: GST pull-down of His-tagged MAPKAPK2; type: binding; settings: GST-p38 300 nM, His-MK2 20 nM; vs T123A mutant or wild type
T1 construct: made in house
Procedure: (§1) Purified GST-p38 and its T123 mutants (300 nM) were incubated in the presence of purified MKK6 (3 nM) or His-tagged MAPKAPK2 ([…], 20 nM) in a pull down assay with GST as a negative control. Sedimented proteins were developed by Western Blot using anti-MKK6, anti-Histidine (for His-MK2) or anti-GST (for total amounts of GST-p38s) antibodies. In all panels, results are representative of three independent experiments performed in duplicate.
(§2) The proteins GST, GST-p38 wt, GST-p38T123A and GST-p38T123D were bacterially expressed and isolated using Gluthatione-Sepharose 4B (GE-Amersham) following standard procedures (Murga, C. et al. High affinity binding of beta-adrenergic receptor kinase to microsomal membranes. Modulation of the activity of bound kinase by heterotrimeric G protein activation. J Biol Chem 271, 985-994 (1996)). His-MAPKAPK2 was purified using Probond resin (Invitrogen) following manufacturer's indications. MKK6CAM was purchased from Upstate Biotech. The amount of proteins detailed in the legend to each figure were incubated in binding buffer (25 mM Tris pH 7.5, 0.25 M NaCl, 10 mM MgCl2, 5 mM NaF and 0.5% BSA) for 30 min at 30° C. with constant shaking. ATP (50 μM) was added for MAPKAPK2 pull downs. Precipitates were washed three times (10 ml) with the same buffer containing 0.5% Triton X100. Precipitated complexes were resolved by SDS-PAGE and developed by Western Blot.

[3] = system: GST-ATF2; assay: phosphorylation of GST-ATF2 by MKK6CAM-activated p38; type: biochemical; settings: with MKK6CAM, 2 μg GST-ATF2
Procedure: The reactions were carried out at 30° C. for 30 minutes and the proteins were separated in 8% SDS-PAGE gels. The amount of p38 in each point was visualized by Coomassie Blue staining. Then the radioactivity in each p38 isoform was determined. […] FIG. 11B: In these same assays, the ability of MKK6CAM-activated GST-p38WT, GST-p38T123A and GST-p38T123D to phosphorylate 2 μg of GST-ATF2 is evaluated. The representative autoradiography (^32P) of the total GST-ATF2 control (Coomassie Blue) is attached.
(§3) The ATF2 and MEF2A forms bound to GST were used to test the catalytic activity of GST-p38. In most cases, 2 μg of GST-ATF2 or GST-MEF2A, of own production, were used. The phosphorylation conditions are the same as set forth in the foregoing cases. Nevertheless, in other occasions, relevantly pointed out in the Figures, 0.2 μg of substrate were used and the phosphorylation reaction was allowed to take pace for 15 minutes only.

[4] = system: GST-MEF2A; assay: phosphorylation of GST-MEF2A by p38; type: biochemical; settings: with MKK6CAM, 2 μg GST-MEF2A
Procedure: FIG. 12A: In vitro phosphorylations are carried out with the fusion proteins indicated in the Figure, in the presence (+) or absence (−) of recombinant MKK6CAM(40 ng) and 2 μg of GST-MEF2A. The assay was left to take place for 30 minutes. The proteins were separated in 8% SDS-PAGE, stained with CBB and the incorporated radioactivity (^32P) was detected. Panels of a representative experiment of the three assays carried out independently are provided. FIG. 12B: The baseline activity of the three p38 fusion proteins in the absence of the MKK6CAM activator was evaluated in the previously described conditions. A representative autoradiography after a long exposure is shown.
as §3

[5] = system: MKK6; assay: GST pull-down of purified MKK6; type: binding; settings: GST-p38 300 nM, MKK6 3 nM; vs T123A mutant or wild type
Procedure: as §1, §2

T1 sequence (P49137 with tags, fused parts or gaps): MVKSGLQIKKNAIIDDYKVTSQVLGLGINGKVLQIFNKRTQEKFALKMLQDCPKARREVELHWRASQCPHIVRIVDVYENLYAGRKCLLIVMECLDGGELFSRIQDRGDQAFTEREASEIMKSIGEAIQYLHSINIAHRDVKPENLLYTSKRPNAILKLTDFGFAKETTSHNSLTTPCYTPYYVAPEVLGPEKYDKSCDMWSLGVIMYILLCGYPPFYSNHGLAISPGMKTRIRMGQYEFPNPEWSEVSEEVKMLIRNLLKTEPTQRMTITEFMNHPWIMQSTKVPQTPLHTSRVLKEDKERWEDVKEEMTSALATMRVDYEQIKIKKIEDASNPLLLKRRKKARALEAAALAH

B1: p38T123D: p38α mutant; aspartic acid mimics the constitutively phosphorylated form of threonine 123 (protein, UniProt P47811 2-360, looked up, variant T123D)
Mitogen-activated protein …: SQERPTFYRQELNKTIWEVPERYQNLSPVGSGAYGSVCAAFDTKTGHRVAVKKLSRPFQSIIHAKRTYRELRLLKHMKHENVIGLLDVFTPARSLEEFNDVYLVTHLMGADLNNIVKCQKLDDDHVQFLIYQILRGLKYIHSADIIHRDLKPSNLAVNEDCELKILDFGLARHTDDEMTGYVATRWYRAPEIMLNWMHYNQTVDIWSVGCIMAELLTGRTLFPGTDHIDQLKLILRLVGTPGAELLKKISSESARNYIQSLAQMPKMNFANVFIGANPLAVDLLEKMLVLDSDKRITAAQALAHAYFAQYHDPDDEPVADPYDQSFESRDLLIDEWKSLTYDEVISFVPPPLDQEEMES
modifications: GST or Flag tag in some forms
activation by MKK6CAM versus Flag-p38WT [1]: considerable reduction
ability to associate to MK2 [2]: severely impaired
catalytic activity on GST-ATF2 [3]: lacks the most minimum catalytic activity
catalytic activity on MEF2A [4]: completely abolished
ability to associate to MKK6 [5]: severely impaired
